Source: patent publication US20160257744A1 (Genentech, published 2016)
Substitutions are numbered along the chain they refer to.

T1: interleukin 5 (IL5) (human, UniProt P05113 20-134)
T1 construct: also called human IL5 (R&D Systems)
T1 sequence (looked up): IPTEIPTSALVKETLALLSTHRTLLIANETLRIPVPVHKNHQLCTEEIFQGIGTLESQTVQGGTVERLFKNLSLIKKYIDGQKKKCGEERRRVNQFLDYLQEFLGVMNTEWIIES

B1: 1C.3 (Fab, V domains shown)
VH: EVQLVQSGAEVKKPGASVKVSCKASGYTFTDYFIHWVRQAPGQGLEWIGGIVYDATGFTTYAVEFKGRVTITRDTSTSTAYLELSSLRSEDTAVYYCARGGIFYGMDYWGQGTLVTVSS
VL: DIQMTQSPSSLSASVGDRVTITCKASQSVINDAAWYQQKPGKAPKLLIYYTSHRYTGVPSRFSGSGSGTDFTLTISSLQEDFATYYCQQDYTHPWTFGQGTKVEIKR
B2: 1C.42 (Fab, V domains shown)
VH: B1 VH with V63D, E64S
VL: B1 VL
B3: 1C.24 (Fab, V domains shown)
VH: B1 VH with G49A, V63D, E64S
VL: B1 VL with T92L
B4: 1C.91 (Fab, V domains shown)
VH: B1 VH with V63E, E64D
VL: B1 VL with H93S
B5: 1C.11 (Fab, V domains shown)
VH: B1 VH with T60I, V63E, E64N
VL: B1 VL with T92I, H93S
B6: 2B.64 (Fab, V domains shown)
VH: B1 VH with G49A, V63D, E64S, V69F, A80V
VL: B1 VL with H93S
B7: 2B.35 (Fab, V domains shown)
VH: B1 VH with G49A, V63D, E64T, T75P, A80V
VL: B1 VL with H93S
B8: 1C.93 (Fab, V domains shown)
VH: B1 VH with T60V, V63D, E64D
VL: B1 VL
B9: 2B.6 (Fab, V domains shown)
VH: B1 VH with G49A, V63D, E64L, R73I, T75F
VL: B1 VL with H93S
B10: 1C.27 (Fab, V domains shown)
VH: B1 VH with T60I, V63D, E64D
VL: B1 VL
B11: 2B.28 (Fab, V domains shown)
VH: B1 VH with G49A, V63D, E64N, T75M, A80V
VL: B1 VL with H93S
B12: 2C.75 (Fab, V domains shown)
VH: B1 VH with G49A, V63D, E64F, A80V
VL: B1 VL with H93S
B13: 1C.94 (Fab, V domains shown)
VH: B1 VH with T60A, V63D, E64D
VL: B1 VL with H93S
B14: 2B.48 (Fab, V domains shown)
VH: B1 VH with G49A, V63D, E64A, A80V
VL: B1 VL with H93S
B15: E7 as human IgG1 (antibody, V domains shown)
VH: B1 VH with G49A, V63D, E64D
VL: B1 VL with H93S
notes: also called IL4/IL5 dual specific antibody E7
B16: B1 as human IgG1 (antibody, V domains shown)
VH: EVQLVQSGAEVKKPGASVKVSCKASGYTFTDYLMHWVRQAPGQGLEWIAVIVSITGRTYYADDFKGRVTITRDTSTSTAYLELSSLRSEDTAVYYCARGGIFYGMDYWGQGTLVTVSS
VL: DIQMTQSPSSLSASVGDRVTITCKASQSVINDAAWYQQKPGKAPKLLIYYTSHRYTGVPSRFSGSGSGTDFTLTISSLQEDFATYYCQQDYTPFPLTFGQGTKVEIKR
notes: also called IL4/IL5 dual specific antibody B1

Target: T1, interleukin 5 (IL5)
Test: phage competition ELISA (phage IC50), soluble IL5 against IL5-coated wells
Experimental: Fab displaying phage was first incubated with serial dilutions of the respective antigens in solution for 2 h, unbound phage was then briefly captured by antigen coated ELISA wells and detected with anti-M13 HRP conjugate. The concentration of antigen inhibiting 50% of phage binding to antigen coated well is calculated as IC₅₀. NB denotes no detectable binding of phage clone directly to the antigens coated wells.
The relative affinity of each clone was assessed by phage IC₅₀ as above.

IC50 [µM]	Binder
~1	B1
0.0085	B2
~1	B3
~1	B4
~1	B5
~1	B6
0.0015	B7
~1	B8
~1	B9
0.0182	B10
0.0011	B11
0.0006	B12
~1	B13
0.0092	B14

Target: T2, HER2 ECD
T2 construct: one of the irrelevant proteins; also called irrelevant protein coated on ELISA wells
Test: ELISA: human IgG1 at 250 nM on protein-coated wells, anti-Fc-HRP

binding result	Binder
no binding (tested: 250 nM)	B15
no binding (tested: 250 nM)	B16

Target: interleukin 13 (IL13) (UniProt P35225 35-146, limits assumed)
Sequence (P35225 35-146 limits assumed): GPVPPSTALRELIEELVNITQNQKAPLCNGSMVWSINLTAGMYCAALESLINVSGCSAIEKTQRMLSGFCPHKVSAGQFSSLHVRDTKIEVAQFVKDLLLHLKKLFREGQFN
Test: as above

binding result	Binder
no binding (tested: 250 nM)	B15
no binding (tested: 250 nM)	B16

Target: T3, BSA (bovine, UniProt P02769)
T3 construct: negative control protein; also called irrelevant protein coated on ELISA wells
T3 sequence (P02769 25-607 limits assumed): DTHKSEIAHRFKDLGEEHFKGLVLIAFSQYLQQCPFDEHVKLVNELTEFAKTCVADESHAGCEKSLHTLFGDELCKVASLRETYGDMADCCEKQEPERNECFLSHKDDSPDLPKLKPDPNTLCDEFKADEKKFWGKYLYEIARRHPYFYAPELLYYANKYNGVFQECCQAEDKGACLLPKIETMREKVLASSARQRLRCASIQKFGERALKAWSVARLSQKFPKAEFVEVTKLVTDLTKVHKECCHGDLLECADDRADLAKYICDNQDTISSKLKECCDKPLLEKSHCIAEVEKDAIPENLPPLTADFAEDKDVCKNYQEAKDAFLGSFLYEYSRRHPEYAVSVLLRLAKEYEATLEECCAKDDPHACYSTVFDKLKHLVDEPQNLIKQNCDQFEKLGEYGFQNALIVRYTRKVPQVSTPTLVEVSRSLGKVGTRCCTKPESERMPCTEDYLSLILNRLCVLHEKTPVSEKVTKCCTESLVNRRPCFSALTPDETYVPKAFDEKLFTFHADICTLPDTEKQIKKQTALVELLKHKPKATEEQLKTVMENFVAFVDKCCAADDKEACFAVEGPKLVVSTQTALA
Test: as above

binding result	Binder
no binding (tested: 250 nM)	B15
no binding (tested: 250 nM)	B16
